From US10426824 (Dana-Farber, dated 2019)

Molecular target: HLA-A3 (human)
Experiment: competitive MHC binding assay against a reference peptide

IC50: 17 nM
B1: E255K-B255-263 mutant BCR-ABL peptide (KVYEGVWKK) (peptide)
peptide: KVYEGVWKK
notes: Synthetic 9-mer; also called E255K-B (MUT) peptide; BCR-ABL peptide harboring the E255K mutation
